In PMC6547421, “A unique exonuclease ExoG cleaves between RNA and DNA in mitochondrial DNA replication” (Nucleic Acids Research, 2019):

B1: human ExoG-H140A (catalytically dead mutant of Exonuclease G, without the N-terminal MLS) (enzyme, UniProt Q9Y2C4 42-368, looked up)
chain: QGAEGALTGKQPDGSAEKAVLEQFGFPLTGTEARCYTNHALSYDQAKRVPRWVLEHISKSKIMGDADRKHCKFKPDPNIPPTFSAFNEDYVGSGWSRGAMAPAGNNKFSSKAMAETFYLSNIVPQDFDNNSGYWNRIEMYCRELTERFEDVWVVSGPLTLPQTRGDGKKIVSYQVIGEDNVAVPSHLYKVILARRSSVSTEPLALGAFVVPNEAIGFQPQLTEFQVSLQDLEKLSGLVFFPHLDRTSDIRNICSVDTCKLLDFQEFTLYLSTRKIEGARSVLRLEKIMENLKNAEIEPDDYFMSRYEKKLEELKAKEQSGTQIRKPS
notes: source: E. coli Rosetta 2 (DE3) pLysS, purified (HisTrap HP, Superdex 200 gel filtration)
B2: R2-DNA/DNA (mixed)
DNA 1: GCTTAACGCTGACTCGCTAC
DNA 2: GTAGCGAGTCAGCGTTAAGCACTATCATAGCCATCTGCCATTACTG
modifications: strand 1 nt 1-2 (GC) are ribonucleotides, rest DNA; 5'-phosphate on strand 1
B3: DNA/DNA (dsDNA)
DNA 1: GCTTAACGCTGACTCGCTAC
DNA 2: GTAGCGAGTCAGCGTTAAGCACTATCATAGCCATCTGCCATTACTG
modifications: 5'-phosphate on strand 1
B4: 12-bp palindromic DNA (crystal) (dsDNA)
DNA 1: CGGGATATCCCG
DNA 2: CGGGATATCCCG
modifications: 5'-OH and 3'-OH
B5: 12-bp RNA/DNA hybrid (crystal) (DNA:RNA)
RNA: CGGGAUGUCACG
DNA: CGTGACATCCCG
modifications: 5'-phosphate on RNA strand; DNA strand 5'-OH
B6: 12-nt R2-DNA/DNA chimeric duplex (crystal) (mixed)
DNA 1: CGGGATGTCACG
DNA 2: CGTGACATCCCG
modifications: two 5'-end ribonucleotides and 5'-phosphate on scissile strand; complement DNA 5'-OH
B7: RNA/DNA (DNA:RNA)
RNA: GCUUAACGCUGACUCGCUAC
DNA: GTAGCGAGTCAGCGTTAAGCACTATCATAGCCATCTGCCATTACTG
modifications: strand 1 RNA with 5'-phosphate; strand 2 DNA

Columns and labels:
[1] = biological target: the molecule itself; assay: crystal structure; ExoG-H140A co-crystallised with a 12-bp dsDNA, an RNA/DNA hybrid duplex or an R2-DNA/DNA chimeric duplex (protein to substrate 1:1.2, 2 mM MgCl2), hanging drop vapor diffusion at 4°C; ExoG dimer in the asymmetric unit, each protomer bound to one duplex
[2] = biological target: T1, ExoG-H140A/F168A (Homo sapiens, UniProt Q9Y2C4 42-368, H140A;F168A); assay: fluorescence polarization; 2.5 mM Mg2+; FP: 10 nM FAM substrate, 10 mM HEPES pH 7.4, 150 mM NaCl, 2.5 mM MgCl2; temperature not stated; details: protein: recombinant; tags: N-terminal His; chain copies: 2; label: 3'-FAM strand 1; 5'-biotin strand 2; 20-bp duplex, 26-nt 3' overhang on strand 2
T1 sequence: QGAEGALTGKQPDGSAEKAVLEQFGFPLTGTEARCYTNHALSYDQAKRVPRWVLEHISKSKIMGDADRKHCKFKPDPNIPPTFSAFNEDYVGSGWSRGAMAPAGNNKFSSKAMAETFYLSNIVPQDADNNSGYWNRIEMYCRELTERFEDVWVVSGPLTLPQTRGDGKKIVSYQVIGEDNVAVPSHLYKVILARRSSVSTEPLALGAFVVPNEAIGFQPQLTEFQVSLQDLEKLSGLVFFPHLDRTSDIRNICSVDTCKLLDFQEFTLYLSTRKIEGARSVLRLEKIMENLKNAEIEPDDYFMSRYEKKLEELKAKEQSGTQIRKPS

[3] = biological target: T2, ExoG-H140A (catalytically dead) (Homo sapiens, UniProt Q9Y2C4 42-368, H140A); assay: as above; details: protein: recombinant; tags: N-terminal His; chain copies: 2; label: 3'-FAM strand 1; 5'-biotin strand 2; 20-bp duplex, 26-nt 3' overhang on strand 2
T2 sequence: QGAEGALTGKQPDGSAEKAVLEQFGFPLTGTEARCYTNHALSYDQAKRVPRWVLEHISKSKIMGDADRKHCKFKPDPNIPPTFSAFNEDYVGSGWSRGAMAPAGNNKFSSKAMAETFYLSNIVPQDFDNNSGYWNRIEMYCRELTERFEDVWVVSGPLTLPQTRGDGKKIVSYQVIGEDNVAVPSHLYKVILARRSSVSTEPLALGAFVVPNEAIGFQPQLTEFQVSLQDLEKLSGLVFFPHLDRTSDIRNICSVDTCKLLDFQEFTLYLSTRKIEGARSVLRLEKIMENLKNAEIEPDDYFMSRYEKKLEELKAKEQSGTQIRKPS

[4] = biological target: T3, ExoG-H140A/N176A (Homo sapiens, UniProt Q9Y2C4 42-368, H140A;N176A); assay: as above; details: protein: recombinant; tags: N-terminal His; chain copies: 2; label: 3'-FAM strand 1; 5'-biotin strand 2; 20-bp duplex, 26-nt 3' overhang on strand 2
T3 sequence: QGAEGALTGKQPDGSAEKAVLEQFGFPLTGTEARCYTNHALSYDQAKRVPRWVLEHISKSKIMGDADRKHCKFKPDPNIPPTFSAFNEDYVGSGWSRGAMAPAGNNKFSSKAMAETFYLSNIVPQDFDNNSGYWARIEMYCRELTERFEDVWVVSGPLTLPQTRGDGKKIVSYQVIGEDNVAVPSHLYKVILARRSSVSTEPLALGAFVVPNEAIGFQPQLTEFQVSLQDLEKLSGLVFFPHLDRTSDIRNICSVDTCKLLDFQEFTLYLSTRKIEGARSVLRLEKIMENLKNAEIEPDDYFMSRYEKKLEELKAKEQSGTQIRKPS

[5] = biological target: T2, ExoG-H140A (catalytically dead); assay: crystal structure (2.3 A); Mg2+; one duplex per protomer; FP: 10 nM FAM substrate, 10 mM HEPES pH 7.4, 150 mM NaCl, 2.5 mM MgCl2; temperature not stated; details: protein: recombinant; tags: N-terminal His; chain copies: 2; blunt, self-complementary, 2 copies of strand
[6] = biological target: T2, ExoG-H140A (catalytically dead); assay: crystal structure (2.8 A); Mg2+; one duplex per protomer; FP: 10 nM FAM substrate, 10 mM HEPES pH 7.4, 150 mM NaCl, 2.5 mM MgCl2; temperature not stated; details: protein: recombinant; tags: N-terminal His; chain copies: 2; 12-bp duplex
[7] = biological target: T2, ExoG-H140A (catalytically dead); assay: crystal structure (3.0 A); Mg2+; one duplex per protomer; FP: 10 nM FAM substrate, 10 mM HEPES pH 7.4, 150 mM NaCl, 2.5 mM MgCl2; temperature not stated; details: protein: recombinant; tags: N-terminal His; chain copies: 2; 12-bp duplex

Binder	Kd [2]	Kd [3]	Kd [4]	also measured
B1				binding result [1]: binds
B2	3150 ± 259 nM	1030 ± 86 nM	930 ± 63 nM	
B3	3930 ± 188 nM	1320 ± 79 nM	950 ± 63 nM	
B4				binding result [5]: binds
B5				binding result [6]: binds
B6				binding result [7]: binds
B7	250 ± 14 nM	190 ± 10 nM	120 ± 8 nM	
